The series is described as follows: self-splicing fitness, log relative to wild type (ln ratio); higher = more splicing; Tetrahymena group I intron in knt gene, E. coli kanamycin selection, DiMSum; sequences stand for … in CUCUCU…GGAGGGAAAAGUUAUCAGGCAUGCACCUGGUAGCUAGUCUUUAAACCAAUAGAUUGCAUCGGUUUAAAAGGCAAGACCGUCAAAUUGCGGGAAAGGGGUCAACAGCCGUUCAGUACCAAGUCUCAGGGGAAACUUUGAGAUGGCCUUGCAAAGGGUAUGGUAAUAAGCUGACGGACAUGGUCCUAACCACGCAGCCAAGUCCUAAGUCAACAGAUCUUCUGUUGAUAUGGAUGCAGUUCACAGACUAAAUGUCGGUCGGGGAAGAUGUAUUCUUCUCAUAAGAUAUAGUCGGACCUCUCCUUAAUGGGAGCUAGCGGAUGAAGUGAUGCAACACUGGAGCCGCUGGGAACUAAUUUGUAUGCGAAAGUAUAUUGAUUAGUUUUGGAGUACUCGUGGUCG
A digest of the protocol:
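DiMSum derived fitness as the error-weighted combination of fold changes across replicates, kanamycin versus no kanamycin, normalised to wild type. E. coli BL21(DE3) held the library, which randomised all eight P1ex-region intron nucleotides within the knt kanamycin-resistance gene on pET-22b(+). Six replicate transformations grew overnight at 37°C or 30°C on LB agar with or without 25 μg/mL kanamycin, also containing 100 μg/mL carbenicillin, 50 μM IPTG and 0.2% rhamnose, and pooled colonies were amplicon-sequenced on an Illumina HiSeq 2500.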

Experimental findings from the supplement of paper PMC7877785 are described below.

± gives the uncertainty stated by the source.

For GUAAAGCAAUAUUACGUGCC, the “self-splicing fitness (ln)” value by setting is: (30 °C) -3.19 ± 0.16; (37 °C) -1.93 ± 0.17.

With GUAAAGCAAUAUUACGUGCG, the “self-splicing fitness (ln)” value by setting is: (30 °C) -0.447 ± 0.065; (37 °C) -0.538 ± 0.069. As to GUAAAGCAAUAUUACGUUGA, the “self-splicing fitness (ln)” value is -1.97 ± 0.071 (30 °C) and -0.945 ± 0.098 (37 °C). On the same counts, the results for GUAAAGCAAUAUUACGUUGC are -2.38 ± 0.1 and -3.2 ± 0.26. Take GUAAAGCAAUAUUACGUUGG: the “self-splicing fitness (ln)” value is -1.84 ± 0.12 (30 °C) and -1.56 ± 0.13 (37 °C). Taken in the same sequence, the figures for GUACAGCAAUAUUACGACGU were -0.603 ± 0.075 and 0.215 ± 0.081. Taken in the same sequence, the figures for GUACAGCAAUAUUACGAGAG were -2.62 ± 0.29 and -2.64 ± 0.25. Taken in the same sequence, the figures for GUACAGCAAUAUUACGAGCG were -2.59 ± 0.11 and -0.624 ± 0.098. Consider GUACAGCAAUAUUACGAGGU, for which the “self-splicing fitness (ln)” value runs as follows: (30 °C) -4.68 ± 0.29; (37 °C) -1.97 ± 0.16. On the same counts, the results for GUACAGCAAUAUUACGAUAG are -3.23 ± 0.16 and -0.84 ± 0.13. On the same counts, the results for GUACAGCAAUAUUACGCAAA are -0.875 ± 0.14 and -2.48 ± 0.28. On the same counts, the results for GUACAGCAAUAUUACGCCUG are -2.24 ± 0.25 and -0.634 ± 0.19. Take GUACAGCAAUAUUACGCUCU: the “self-splicing fitness (ln)” value is -0.911 ± 0.091 (30 °C) and -0.379 ± 0.11 (37 °C). Taken in the same sequence, the figures for GUACAGCAAUAUUACGCUUG were -1.97 ± 0.098 and -1.1 ± 0.12. Taken in the same sequence, the figures for GUACAGCAAUAUUACGGAUG were -2.79 ± 0.2 and -1.8 ± 0.17. Consider GUACAGCAAUAUUACGGCGG, for which the “self-splicing fitness (ln)” value runs as follows: (30 °C) -2.78 ± 0.19; (37 °C) -2.66 ± 0.22. Take GUACAGCAAUAUUACGGGCA: the “self-splicing fitness (ln)” value runs as follows: (30 °C) -1.9 ± 0.093; (37 °C) -0.873 ± 0.088. On the same counts, the results for GUACAGCAAUAUUACGUAAA are -2.87 ± 0.14 and -1.44 ± 0.16. For GUACAGCAAUAUUACGUCUC, the “self-splicing fitness (ln)” value was -0.298 ± 0.11 (30 °C) and -0.182 ± 0.12 (37 °C).

Consider GUACAGCAAUAUUACGUGGC, for which the “self-splicing fitness (ln)” value is -3.61 ± 0.17 (30 °C) and -1.75 ± 0.13 (37 °C). Regarding GUACAGCAAUAUUACGUGUA, the “self-splicing fitness (ln)” value runs as follows: (30 °C) -3.18 ± 0.16; (37 °C) -2.32 ± 0.14. On the same counts, the results for GUACAGCAAUAUUACGUUCC are -3.44 ± 0.15 and -3.48 ± 0.42. On the same counts, the results for GUAGAGCAAUAUUACGAAGU are -2.46 ± 0.23 and -0.951 ± 0.17. Consider GUAGAGCAAUAUUACGACUU, for which the “self-splicing fitness (ln)” value runs as follows: (30 °C) -0.172 ± 0.081; (37 °C) 0.104 ± 0.1. Taken in the same sequence, the figures for GUAGAGCAAUAUUACGAUAA were -1.5 ± 0.15 and 0.242 ± 0.19. Regarding GUAGAGCAAUAUUACGAUCC, the “self-splicing fitness (ln)” value runs as follows: (30 °C) -1.22 ± 0.21; (37 °C) -0.765 ± 0.28. For the sequence GUAGAGCAAUAUUACGCAUC, the “self-splicing fitness (ln)” value by setting is: (30 °C) -1.49 ± 0.13; (37 °C) -1.37 ± 0.15. For the sequence GUAGAGCAAUAUUACGCCGG, the “self-splicing fitness (ln)” value (30 °C) was -1.41 ± 0.21 and the “self-splicing fitness (ln)” value (37 °C) is -0.336 ± 0.47.

On to GUAGAGCAAUAUUACGCCUC, for which the “self-splicing fitness (ln)” value is, setting by setting: (30 °C) -0.746 ± 0.27; (37 °C) -0.67 ± 0.37. As to GUAGAGCAAUAUUACGCUAA, the “self-splicing fitness (ln)” value is, setting by setting: (30 °C) -0.515 ± 0.07; (37 °C) -0.264 ± 0.089. Take GUAGAGCAAUAUUACGGAUG: the “self-splicing fitness (ln)” value (30 °C) is -3.96 ± 0.43 and the “self-splicing fitness (ln)” value (37 °C) was -2.08 ± 0.36. On the same counts, the results for GUAGAGCAAUAUUACGGGCG are -1.68 ± 0.12 and -1.19 ± 0.15. In the case of GUAGAGCAAUAUUACGGUUU, the “self-splicing fitness (ln)” value (30 °C) is -1.75 ± 0.11 and the “self-splicing fitness (ln)” value (37 °C) is -0.8 ± 0.13.

In the case of GUAGAGCAAUAUUACGUCAG, the “self-splicing fitness (ln)” value (30 °C) is -3.1 ± 0.3 and the “self-splicing fitness (ln)” value (37 °C) is -2.07 ± 0.23. On the same counts, the results for GUAGAGCAAUAUUACGUGAG are -2.33 ± 0.15 and -0.687 ± 0.16. As to GUAGAGCAAUAUUACGUGCC, the “self-splicing fitness (ln)” value (37 °C) is -2.12 ± 0.28. For the sequence GUAGAGCAAUAUUACGUGUG, the “self-splicing fitness (ln)” value by setting is: (30 °C) -0.928 ± 0.073; (37 °C) -1.6 ± 0.12. Taken in the same sequence, the figures for GUAGAGCAAUAUUACGUUAA were -2 ± 0.17 and -0.228 ± 0.21. On to GUAUAGCAAUAUUACGACCU, for which the “self-splicing fitness (ln)” value (30 °C) is -1.21 ± 0.18 and the “self-splicing fitness (ln)” value (37 °C) was -0.345 ± 0.18. As for GUAUAGCAAUAUUACGACGA, the “self-splicing fitness (ln)” value is -1.78 ± 0.24 (30 °C) and -0.483 ± 0.19 (37 °C).

With GUAUAGCAAUAUUACGAGUC, the “self-splicing fitness (ln)” value (30 °C) is -3.65 ± 0.38 and the “self-splicing fitness (ln)” value (37 °C) was -0.711 ± 0.19. On to GUAUAGCAAUAUUACGAUCA, for which the “self-splicing fitness (ln)” value was -1.33 ± 0.2 (30 °C) and -0.768 ± 0.16 (37 °C). On the same counts, the results for GUAUAGCAAUAUUACGAUGC are -2.65 ± 0.2 and -2.55 ± 0.24. On the same counts, the results for GUAUAGCAAUAUUACGCAAU are -1.98 ± 0.22 and -2.85 ± 0.4. For GUAUAGCAAUAUUACGCCAU, the “self-splicing fitness (ln)” value was -2.96 ± 0.32 (30 °C) and -1.6 ± 0.22 (37 °C). Turning to GUAUAGCAAUAUUACGCCGU, the “self-splicing fitness (ln)” value (30 °C) was -2.69 ± 0.23 and the “self-splicing fitness (ln)” value (37 °C) was -0.947 ± 0.19. For GUAUAGCAAUAUUACGCUCG, the “self-splicing fitness (ln)” value was -0.631 ± 0.15 (30 °C) and -0.0296 ± 0.19 (37 °C). On the same counts, the results for GUAUAGCAAUAUUACGCUUA are -2.39 ± 0.17 and -1.23 ± 0.2. As to GUAUAGCAAUAUUACGGAUG, the “self-splicing fitness (ln)” value reads like this: (30 °C) -2.65 ± 0.39; (37 °C) -1.99 ± 0.25. Consider GUAUAGCAAUAUUACGGAUU, for which the “self-splicing fitness (ln)” value (30 °C) is -2.58 ± 0.14 and the “self-splicing fitness (ln)” value (37 °C) is -0.56 ± 0.13. As to GUAUAGCAAUAUUACGGCGG, the “self-splicing fitness (ln)” value (37 °C) is -2.1 ± 0.38.

On to GUAUAGCAAUAUUACGGGGC, for which the “self-splicing fitness (ln)” value (37 °C) is -1.61 ± 0.37. On to GUAUAGCAAUAUUACGGUCU, for which the “self-splicing fitness (ln)” value (30 °C) was -1.47 ± 0.11 and the “self-splicing fitness (ln)” value (37 °C) is -0.548 ± 0.16. As to GUAUAGCAAUAUUACGUAUA, the “self-splicing fitness (ln)” value reads like this: (30 °C) -3.48 ± 0.41; (37 °C) -1.8 ± 0.25.

GUAUAGCAAUAUUACGUCCU: the “self-splicing fitness (ln)” value by setting is: (30 °C) -1.56 ± 0.15; (37 °C) -0.00945 ± 0.19.

With GUAUAGCAAUAUUACGUGAC, the “self-splicing fitness (ln)” value is -2.65 ± 0.13 (30 °C) and -1.65 ± 0.14 (37 °C).

Turning to GUAUAGCAAUAUUACGUGCG, the “self-splicing fitness (ln)” value was -1.4 ± 0.12 (30 °C) and -0.66 ± 0.15 (37 °C). With GUCAAGCAAUAUUACGAGAC, the “self-splicing fitness (ln)” value is -3.46 ± 0.19 (30 °C) and -3.84 ± 0.26 (37 °C). On to GUCAAGCAAUAUUACGAUUU, for which the “self-splicing fitness (ln)” value (30 °C) was -0.962 ± 0.08 and the “self-splicing fitness (ln)” value (37 °C) is -1.42 ± 0.11.

For the sequence GUCAAGCAAUAUUACGCAAA, the “self-splicing fitness (ln)” value runs as follows: (30 °C) -1.99 ± 0.15; (37 °C) -1.46 ± 0.16. Take GUCAAGCAAUAUUACGCACG: the “self-splicing fitness (ln)” value by setting is: (30 °C) -1.96 ± 0.13; (37 °C) -1.49 ± 0.19. For the sequence GUCAAGCAAUAUUACGCAUG, the “self-splicing fitness (ln)” value reads like this: (30 °C) -4.62 ± 0.34; (37 °C) -2.33 ± 0.17. Taken in the same sequence, the figures for GUCAAGCAAUAUUACGCGCC were -4.2 ± 0.3 and -1.95 ± 0.23. Regarding GUCAAGCAAUAUUACGCUCC, the “self-splicing fitness (ln)” value (30 °C) was -1.87 ± 0.28 and the “self-splicing fitness (ln)” value (37 °C) was -1.62 ± 0.29.

Consider GUCAAGCAAUAUUACGGAAU, for which the “self-splicing fitness (ln)” value by setting is: (30 °C) -2.07 ± 0.12; (37 °C) -1.09 ± 0.12. Taken in the same sequence, the figures for GUCAAGCAAUAUUACGGACA were -3.06 ± 0.39 and -2.09 ± 0.19. Turning to GUCAAGCAAUAUUACGGCAU, the “self-splicing fitness (ln)” value was -1.55 ± 0.083 (30 °C) and -0.119 ± 0.1 (37 °C). On the same counts, the results for GUCAAGCAAUAUUACGGUUA are -2.2 ± 0.14 and -0.972 ± 0.1. On the same counts, the results for GUCAAGCAAUAUUACGUAGU are -1.21 ± 0.068 and -0.468 ± 0.1. Turning to GUCAAGCAAUAUUACGUAUA, the “self-splicing fitness (ln)” value was -2.31 ± 0.13 (30 °C) and -0.798 ± 0.14 (37 °C). On the same counts, the results for GUCAAGCAAUAUUACGUCAU are -2.22 ± 0.075 and -1.16 ± 0.064. On the same counts, the results for GUCAAGCAAUAUUACGUGAC are -5.1 ± 0.39 and -4.13 ± 0.32. As to GUCAAGCAAUAUUACGUGAG, the “self-splicing fitness (ln)” value (30 °C) is -1.2 ± 0.054 and the “self-splicing fitness (ln)” value (37 °C) is -0.505 ± 0.067.

As for GUCAAGCAAUAUUACGUUAA, the “self-splicing fitness (ln)” value (30 °C) is -2.02 ± 0.12 and the “self-splicing fitness (ln)” value (37 °C) is -1.74 ± 0.1. In the case of GUCAAGCAAUAUUACGUUAU, the “self-splicing fitness (ln)” value is -2.02 ± 0.088 (30 °C) and -1.15 ± 0.09 (37 °C).
